Reference: article PMC8823281 (Biochemistry, 2021)
Where a chain is given by its changes, count along the chain named. Blank lines part the entries; values can stand above or below the binder they belong to.

Key:
Experiment in all cases: immunostaining of cells or tissue
[1] = biological target: plasma membrane-targeted version of rat VGLUT1 (Rattus norvegicus, UniProt Q62634)
[2] = biological target: plasma membrane-targeted version of rat VGLUT2 (Rattus norvegicus, UniProt Q9JI12, point mutant)
plasma membrane-targeted version of rat VGLUT2, sequence (Q9JI12 whole entry, change not shown): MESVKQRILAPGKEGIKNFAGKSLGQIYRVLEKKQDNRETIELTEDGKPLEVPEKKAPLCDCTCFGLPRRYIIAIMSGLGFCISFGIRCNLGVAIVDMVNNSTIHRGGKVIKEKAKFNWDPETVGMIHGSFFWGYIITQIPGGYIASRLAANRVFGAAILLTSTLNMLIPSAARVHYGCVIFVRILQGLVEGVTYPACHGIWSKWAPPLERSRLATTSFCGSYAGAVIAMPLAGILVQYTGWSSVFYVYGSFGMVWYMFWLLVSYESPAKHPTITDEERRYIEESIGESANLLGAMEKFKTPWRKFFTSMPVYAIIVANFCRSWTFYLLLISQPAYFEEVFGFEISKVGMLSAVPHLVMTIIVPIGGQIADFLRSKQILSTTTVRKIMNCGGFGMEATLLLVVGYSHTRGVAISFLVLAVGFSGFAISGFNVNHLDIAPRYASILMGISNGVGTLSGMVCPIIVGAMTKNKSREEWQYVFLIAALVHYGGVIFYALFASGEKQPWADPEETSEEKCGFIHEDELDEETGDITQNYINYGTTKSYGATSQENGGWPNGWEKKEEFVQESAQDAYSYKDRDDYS

[3] = biological target: plasma membrane-targeted version of rat VGLUT3 (Rattus norvegicus, UniProt Q7TSF2)
plasma membrane-targeted version of rat VGLUT3, sequence (Q7TSF2 whole entry): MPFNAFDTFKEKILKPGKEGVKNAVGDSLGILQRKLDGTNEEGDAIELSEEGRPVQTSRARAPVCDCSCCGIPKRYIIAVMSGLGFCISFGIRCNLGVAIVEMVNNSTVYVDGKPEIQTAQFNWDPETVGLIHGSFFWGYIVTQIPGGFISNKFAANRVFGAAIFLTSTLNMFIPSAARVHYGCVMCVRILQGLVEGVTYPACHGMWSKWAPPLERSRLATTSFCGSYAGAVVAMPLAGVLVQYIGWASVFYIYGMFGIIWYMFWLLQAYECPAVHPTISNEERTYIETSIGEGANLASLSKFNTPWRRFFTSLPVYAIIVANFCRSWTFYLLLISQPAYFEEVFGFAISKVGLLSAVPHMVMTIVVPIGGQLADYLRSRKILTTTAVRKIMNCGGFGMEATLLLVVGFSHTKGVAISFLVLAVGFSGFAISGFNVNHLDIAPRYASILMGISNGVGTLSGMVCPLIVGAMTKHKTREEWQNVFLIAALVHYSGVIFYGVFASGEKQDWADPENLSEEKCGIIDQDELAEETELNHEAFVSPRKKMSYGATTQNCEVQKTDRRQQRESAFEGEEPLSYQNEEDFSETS

plasma membrane-targeted version of rat VGLUT1, sequence (Q62634 whole entry): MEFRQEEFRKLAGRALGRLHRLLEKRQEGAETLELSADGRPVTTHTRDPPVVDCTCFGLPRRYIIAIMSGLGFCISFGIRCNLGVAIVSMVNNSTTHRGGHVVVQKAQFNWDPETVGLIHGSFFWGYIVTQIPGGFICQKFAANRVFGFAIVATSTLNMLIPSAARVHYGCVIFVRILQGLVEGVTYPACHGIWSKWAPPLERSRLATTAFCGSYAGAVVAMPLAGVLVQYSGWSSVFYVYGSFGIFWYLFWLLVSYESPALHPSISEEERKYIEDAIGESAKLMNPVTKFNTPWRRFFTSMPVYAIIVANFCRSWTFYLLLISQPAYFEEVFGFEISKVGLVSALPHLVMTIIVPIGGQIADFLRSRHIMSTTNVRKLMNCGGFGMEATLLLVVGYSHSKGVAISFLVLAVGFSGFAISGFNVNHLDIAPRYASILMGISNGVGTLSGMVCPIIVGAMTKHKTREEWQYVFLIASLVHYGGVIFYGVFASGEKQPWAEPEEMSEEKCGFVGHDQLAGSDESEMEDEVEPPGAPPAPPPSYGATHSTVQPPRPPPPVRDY

binding result [1]: binds
binding result [2]: binds
binding result [3]: no binding
B1: monoclonal antibody 9C6 (antibody, V domains shown)
VH: EVMLVESGGGLVKPGGSLKISCAASGFTFSWYAMSWVRQTPEKRLEWVATISSAGSYTYYPDSVKGRFTISRDNAKNTLYLQMSSLRSEDTAMYYCSRVPILGRVDYWGQGTTLTVSS
VL: QIVLTQSPAIMSASPGEKVTMTCSASSSVTYMHWYQQKSGTSPKTWIYDSSRLASGVPARFSGSGSGTSYSLTISSMEAEDAATYYCQHWSSNPPIFTFGSGTKLEIK

binding result [1]: binds
binding result [3]: no binding
B2: monoclonal antibody 8E11 (antibody, V domains shown)
VH: B1 VH
VL: B1 VL with I10F, H33N, A59P, H89Q
